Columns and labels:
Experiment in all cases: pull-down; anti-FLAG M2 agarose beads bound to Swi1-FLAG (purified from swi3Δ cells) mixed with His6-Swi3 in lysis buffer A (50 mM Tris-HCl pH 8.0, 150 mM NaCl, 0.1% NP-40, 10% glycerol), 1 hour at 4°C, washed three times, Western blotting with anti-FLAG or His6 antibody
Conditions in all cases: both partners purified
Swi1 (750–971)-5FLAG = biological target: T1, Swi1 (750–971)-5FLAG (S. pombe, UniProt Q9UUM2 750-971)
T1 construct: also called C-terminal Swi1; Swi1 C-terminal region; source: S. pombe swi3Δ cells, nmt1 promoter, purified on anti-FLAG M2 agarose (500 mM NaCl washes); not shown: 5FLAG, C-terminal, kept
T1 sequence (looked up): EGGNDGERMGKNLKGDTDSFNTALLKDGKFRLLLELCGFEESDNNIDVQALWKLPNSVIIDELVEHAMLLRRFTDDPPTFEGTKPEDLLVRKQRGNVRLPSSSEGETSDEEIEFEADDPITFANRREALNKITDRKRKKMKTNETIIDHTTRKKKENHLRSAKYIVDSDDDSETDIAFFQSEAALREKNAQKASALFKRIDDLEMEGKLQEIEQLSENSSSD

[1] = biological target: T2, full-length Swi1 (1–971)-5FLAG (overexpressed from the nmt1 promoter) (S. pombe, UniProt Q9UUM2 1-971)
T2 construct: also called pREP-Swi1-5FLAG; Swi1-FLAG; source: S. pombe swi3Δ cells, nmt1 promoter, purified on anti-FLAG M2 agarose (500 mM NaCl washes); not shown: 5FLAG, C-terminal, kept
T2 sequence (looked up): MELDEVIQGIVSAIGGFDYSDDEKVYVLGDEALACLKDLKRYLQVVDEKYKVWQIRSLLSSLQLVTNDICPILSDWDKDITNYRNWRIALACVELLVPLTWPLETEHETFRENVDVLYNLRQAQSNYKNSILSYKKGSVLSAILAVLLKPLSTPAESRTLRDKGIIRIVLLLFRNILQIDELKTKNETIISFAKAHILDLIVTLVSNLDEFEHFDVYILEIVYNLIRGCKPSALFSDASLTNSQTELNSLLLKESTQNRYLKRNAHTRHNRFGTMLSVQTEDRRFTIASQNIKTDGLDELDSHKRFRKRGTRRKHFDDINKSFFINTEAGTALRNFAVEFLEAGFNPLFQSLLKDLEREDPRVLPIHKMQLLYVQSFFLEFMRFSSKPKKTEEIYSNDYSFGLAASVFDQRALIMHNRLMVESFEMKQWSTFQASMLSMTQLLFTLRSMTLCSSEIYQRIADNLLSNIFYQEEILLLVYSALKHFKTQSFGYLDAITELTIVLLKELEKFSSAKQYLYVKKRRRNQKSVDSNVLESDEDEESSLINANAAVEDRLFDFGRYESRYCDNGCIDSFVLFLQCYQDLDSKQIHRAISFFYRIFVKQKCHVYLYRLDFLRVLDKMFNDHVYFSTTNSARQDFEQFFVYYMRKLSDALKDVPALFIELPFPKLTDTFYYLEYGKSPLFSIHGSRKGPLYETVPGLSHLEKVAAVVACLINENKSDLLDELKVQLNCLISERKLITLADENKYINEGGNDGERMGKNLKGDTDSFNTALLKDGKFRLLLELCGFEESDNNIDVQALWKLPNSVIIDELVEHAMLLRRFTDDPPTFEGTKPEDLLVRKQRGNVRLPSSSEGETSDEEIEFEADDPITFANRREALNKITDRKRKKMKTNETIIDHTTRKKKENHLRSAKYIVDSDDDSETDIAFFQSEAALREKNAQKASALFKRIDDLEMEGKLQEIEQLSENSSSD

Swi1 (250–550)-5FLAG = biological target: T3, Swi1 (250–550)-5FLAG (S. pombe, UniProt Q9UUM2 250-550)
T3 construct: Swi1, S. pombe, amino acids 250–550 (contains an NLS and the DDT domain); also called DDT domain-containing region; pREP-Swi1(250–550)-5FLAG; source: S. pombe swi3Δ cells, nmt1 promoter, purified on anti-FLAG M2 agarose (500 mM NaCl washes); not shown: 5FLAG, C-terminal, kept
T3 sequence (looked up): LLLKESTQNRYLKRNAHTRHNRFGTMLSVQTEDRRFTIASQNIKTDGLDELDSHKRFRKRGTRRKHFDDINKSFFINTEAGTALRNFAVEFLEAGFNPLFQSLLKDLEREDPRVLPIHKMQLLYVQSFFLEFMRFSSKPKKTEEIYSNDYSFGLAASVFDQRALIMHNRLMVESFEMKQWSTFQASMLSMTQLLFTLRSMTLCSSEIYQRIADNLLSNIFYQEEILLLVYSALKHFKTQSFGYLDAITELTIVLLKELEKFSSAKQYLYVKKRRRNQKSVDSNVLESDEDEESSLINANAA

binding result (Swi1 (750–971)-5FLAG): binds | binding result [1]: binds | binding result (Swi1 (250–550)-5FLAG): binds
B1: hexahistidine-tagged Swi3 (His6-Swi3) (natural protein, S. pombe, UniProt O14350 1-181, looked up)
chain: MSTAASDSGVEKLVEENKREEVKKNEEEKEFDLGLEENPDSVKKPRKRLAKFDEERLISENGIPKLRKMMRKVKLKGKGHEAKDLKQLLGMYHIWTHELYPRATFDDSISYLKTLGKHRSVKVRRRGWINEIAVENGSDSNASLFTGPSSNSLVNLTSGDPYVQDTADDAFVAQDNDTQLE
notes: Swi3, S. pombe; swi3 open reading frame in the NdeI/XhoI site of pET28a; also called recombinant Swi3; pET28a-Swi3; source: E. coli BL21(DE3), purified (Ni-NTA)

From paper PMC3431386, “Swi1 Associates with Chromatin through the DDT Domain and Recruits Swi3 to Preserve Genomic Integrity” (PLoS ONE, 2012)
